{"source": "patent US20170044515", "proteins": {"B1": {"name": "butelase 1 (active enzyme purified from pods of Clitoria ternatea) (protein)", "chain": "VEGTRWAVLVAGSKGYVNYRHQADVCHAYQILKKGGLKDENIIVFMYDDIAYNESNPHPGVIINHPYGSDVYKGVPKDYVGEDINPPNFYAVLLANKSALTGTGSGKVLDSGPNDHVFIYYTDHGGAGVLGMPSKPYIAASDLNDVLKKKHASGTYKSIVFYVESCESGSMFDGLLPEDHNIYVMGASDTGESSWVTYCPLQHPSPPPEYDVCVGDLFSVAWLEDCDVHNLQTETFQQQYEVVKNKTIVALIEDGTHVVQYGDVGLSKQTLFVYMGTDPANDNNTFTDKNSLGTPRKAVSQRDADLIHYWEKYRRAPEGSSRKAEAKKQLREVMAHRMHIDN"}, "B2": {"name": "Jack bean legumain (Takara Bio) (protein)", "chain": "EVGTRWAVLVAGSNGYGNYRHQADVCHAYQLLIKGGVKEENIVVFMYDDIAYNAMNPRPGVIINHPQGPDVYAGVPKDYTGEDVTPENLYAVILGDKSKVKGGSGKVINSNPEDRIFIFYSDHGGPGVLGMPNAPFVYAMDFIDVLKKKHASGGYKEMVIYIEACESGSIFEGIMPKDLNIYVTTASNAQENSFGTYCPGMNPPPPEEYVTCLGDLYSVSWMEDSETHNLKRETVQQQYQSVRKRTSNSNSYRFGSHVMQYGDTNITAEKLYLYHGFDPATVNFPPHNGNLEAKMEVVNQRDAELLFMWQMYQRSNHQPEKKTHILEQITETVKHRNHLDGSVELIGVLLYGPGKSSSVLHSVRAPGLPLVDDWTCLKSMVRVFETHCGSLTQYGMKHMRAFGNVCNSGVSKASMEEACKAACGGYDAGLLYPSNTGYSA"}}, "key": {"EV-9": {"molecular_target": "T1, EV-9", "T1 chain": "EINSTEINHV"}, "[1]": {"molecular_target": "T2, Rat neuromedin U substrate", "T2 chain": "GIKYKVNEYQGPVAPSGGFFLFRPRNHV"}, "Histatin-3a": {"molecular_target": "T3, Histatin-3a", "T3 chain": "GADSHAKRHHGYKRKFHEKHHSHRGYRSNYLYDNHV"}, "SA-kB1-NHV": {"molecular_target": "T4, SA-kB1-NHV", "T4 chain": "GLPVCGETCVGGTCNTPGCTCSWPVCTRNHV"}, "SFTI-NHV": {"molecular_target": "T5, SFTI-NHV", "T5 chain": "GRCTKSIPPICFPNHV"}, "kB1-N*": {"molecular_target": "T6, kB1-N* (not fully specified)", "T6 chain": "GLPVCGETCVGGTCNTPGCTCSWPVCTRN"}, "Histatin-3b": {"molecular_target": "T7, Histatin-3b", "T7 chain": "T3 chain with A2L"}, "[2]": {"molecular_target": "T8, Neuromedin U substrate (H. sapiens)", "T8 chain": "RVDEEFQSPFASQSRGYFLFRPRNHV"}, "SV-10": {"molecular_target": "T9, SV-10", "T9 chain": "SLPPPIFNHV"}, "kB1-AHV": {"molecular_target": "T10, kB1-AHV (not fully specified)", "T10 chain": "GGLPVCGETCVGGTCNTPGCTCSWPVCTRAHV"}, "[3]": {"molecular_target": "modified GFP ending with Asn-His-Val at the C-terminus and starting with Gly-Ile at the N-terminus"}, "[4]": {"molecular_target": "T11, Apelin substrate (H. sapiens)", "T11 chain": "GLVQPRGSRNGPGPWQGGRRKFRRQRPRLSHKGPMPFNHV"}, "Thanatin analog": {"molecular_target": "T12, Thanatin analog", "T12 chain": "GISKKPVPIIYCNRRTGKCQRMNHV"}, "kB1-NHVI": {"molecular_target": "T13, kB1-NHVI (not fully specified)", "T13 chain": "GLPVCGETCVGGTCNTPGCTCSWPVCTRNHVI"}, "kB1-NHV": {"molecular_target": "T14, kB1-NHV (not fully specified)", "T14 chain": "T4 chain"}, "kB1-DHV": {"molecular_target": "T15, kB1-DHV (not fully specified)", "T15 chain": "T10 chain with A30D"}, "[5]": {"molecular_target": "T16, Galanin substrate (H. sapiens)", "T16 chain": "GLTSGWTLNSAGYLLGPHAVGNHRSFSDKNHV"}, "SFTI-DHV": {"molecular_target": "T17, SFTI-DHV", "T17 chain": "GRCTKSIPPICFPDHV"}, "RV-10": {"molecular_target": "T18, RV-10", "T18 chain": "RVTRPVNHV"}, "kB1-QHV": {"molecular_target": "T19, kB1-QHV (not fully specified)", "T19 chain": "T10 chain with A30Q"}, "Histatin-1b": {"molecular_target": "T20, Histatin-1b", "T20 chain": "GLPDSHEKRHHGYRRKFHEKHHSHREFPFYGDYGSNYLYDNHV"}, "kB1-EHV": {"molecular_target": "T21, kB1-EHV (not fully specified)", "T21 chain": "T10 chain with A30E"}, "[6]": {"molecular_target": "T22, Salusin substrate (H. sapiens)", "T22 chain": "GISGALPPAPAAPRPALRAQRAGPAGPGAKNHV"}, "HV-10": {"molecular_target": "T23, HV-10", "T23 chain": "HLPPPIFNHV"}, "kB1-NH": {"molecular_target": "T24, kB1-NH (not fully specified)", "T24 chain": "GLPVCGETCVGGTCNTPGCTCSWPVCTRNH"}, "GV-10": {"molecular_target": "T25, GV-10", "T25 chain": "GLPPPIFNHV"}, "Histatin-1a": {"molecular_target": "T26, Histatin-1a", "T26 chain": "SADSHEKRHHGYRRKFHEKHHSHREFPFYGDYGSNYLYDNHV"}, "kB1-NHVIA": {"molecular_target": "T27, kB1-NHVIA (not fully specified)", "T27 chain": "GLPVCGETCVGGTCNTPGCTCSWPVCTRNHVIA"}}, "note": "Numbering of substitutions follows the chain as printed.", "data": [{"protein": "B1", "values": [{"measurement": "Yield (%) of dimerization and cyclization, products Cyclo([..]), [..]", "setting": "EV-9", "value": 20, "unit": "%"}, {"measurement": "Km", "setting": "[1]", "value": 20.2, "unit": "µM"}, {"measurement": "cyclization yield within 5 min", "setting": "[1]", "value": "butelase 1 achieved >95% cyclization yields within 5 min for all peptides tested"}, {"measurement": "kcat", "setting": "[1]", "value": 26.6, "unit": "s⁻¹"}, {"measurement": "kcat/Km", "setting": "[1]", "value": "1.31e+06", "unit": "M^-1 S^-1"}, {"measurement": "Yield (%) of cyclization", "setting": "Histatin-3a", "value": 90, "unit": "%"}, {"measurement": "Cyclization yield (%) at 0.2 h", "setting": "SA-kB1-NHV", "value": "> 95", "unit": "%"}, {"measurement": "Km", "setting": "SA-kB1-NHV", "value": 31.5, "unit": "µM"}, {"measurement": "fold change of catalytic efficiency against kB1-NHV", "setting": "SA-kB1-NHV", "value": "a 50-fold improvement in the catalytic efficiency of SA-kB1-NHV compared to kB1-NHV"}, {"measurement": "kcat", "setting": "SA-kB1-NHV", "value": 17.1, "unit": "s⁻¹"}, {"measurement": "kcat/Km", "setting": "SA-kB1-NHV", "value": 542000, "unit": "M⁻¹ s⁻¹"}, {"measurement": "Cyclization yield (%) at 0.8 h", "setting": "SFTI-NHV", "value": "> 95", "unit": "%"}, {"measurement": "Km", "setting": "SFTI-NHV", "value": 51, "unit": "µM"}, {"measurement": "catalytic efficiency (kcat/Km)", "setting": "SFTI-NHV", "value": "catalytic efficiency of 11,700 M^-1 s^-1"}, {"measurement": "kcat", "setting": "SFTI-NHV", "value": 0.6, "unit": "s⁻¹"}, {"measurement": "kcat/Km", "setting": "SFTI-NHV", "value": 10700, "unit": "M⁻¹ s⁻¹"}, {"measurement": "Km", "setting": "MrIA conotoxin substrate", "value": 7.9, "unit": "µM"}, {"measurement": "Yield (%) of cyclization", "setting": "MrIA conotoxin substrate", "value": 95, "unit": "%"}, {"measurement": "kcat", "setting": "MrIA conotoxin substrate", "value": 2.2, "unit": "s⁻¹"}, {"measurement": "kcat/Km", "setting": "MrIA conotoxin substrate", "value": 278000, "unit": "M⁻¹ s⁻¹"}, {"measurement": "Cyclization yield (%) at 4 h", "setting": "kB1-N*", "value": "< 10", "unit": "%"}, {"measurement": "Yield (%) of cyclization", "setting": "Histatin-3b", "value": 90, "unit": "%"}, {"measurement": "Km", "setting": "[2]", "value": 8.7, "unit": "µM"}, {"measurement": "cyclization yield within 5 min", "setting": "[2]", "value": "butelase 1 achieved >95% cyclization yields within 5 min for all peptides tested"}, {"measurement": "kcat", "setting": "[2]", "value": 5.78, "unit": "s⁻¹"}, {"measurement": "kcat/Km", "setting": "[2]", "value": 664000, "unit": "M^-1 S^-1"}, {"measurement": "Yield (%) of dimerization and cyclization, product Cyclo([..])2", "setting": "SV-10", "value": 50, "unit": "%"}, {"measurement": "Cyclization yield (%) at 4 h", "setting": "kB1-AHV", "value": "< 1", "unit": "%"}, {"measurement": "cyclization after 4 h (MS)", "setting": "kB1-AHV", "value": "No cyclization of kB1-AHV, kB1-QHV or kB1-EHV was observed after incubating with butelase 1 for 4 h"}, {"measurement": "cyclization yield within 15 min (SDS page, ESI-MS)", "setting": "[3]", "value": "The cyclization reaction completed within 15 min with >90% yield"}, {"measurement": "Km", "setting": "[4]", "value": 6.7, "unit": "µM"}, {"measurement": "cyclization yield within 5 min", "setting": "[4]", "value": "butelase 1 achieved >95% cyclization yields within 5 min for all peptides tested"}, {"measurement": "kcat", "setting": "[4]", "value": 5.78, "unit": "s⁻¹"}, {"measurement": "kcat/Km", "setting": "[4]", "value": 859000, "unit": "M^-1 S^-1"}, {"measurement": "Yield (%) of cyclization", "setting": "Thanatin analog", "value": 95, "unit": "%"}, {"measurement": "Cyclization yield (%) at 2 h", "setting": "kB1-NHVI", "value": "> 95", "unit": "%"}, {"measurement": "Km", "setting": "kB1-NHVI", "value": 62, "unit": "µM"}, {"measurement": "kcat", "setting": "kB1-NHVI", "value": 0.25, "unit": "s⁻¹"}, {"measurement": "kcat/Km", "setting": "kB1-NHVI", "value": 4030, "unit": "M⁻¹ s⁻¹"}, {"measurement": "Cyclization yield (%) at 0.8 h", "setting": "kB1-NHV", "value": "> 95", "unit": "%"}, {"measurement": "Km", "setting": "kB1-NHV", "value": 213, "unit": "µM"}, {"measurement": "conversion into cyclic kB1 within 6 min (RP-HPLC)", "setting": "kB1-NHV", "value": "converted about 40% of kB1-NHV into cyclic kB1 within 6 min"}, {"measurement": "kcat", "setting": "kB1-NHV", "value": 2.28, "unit": "s⁻¹"}, {"measurement": "kcat/Km", "setting": "kB1-NHV", "value": 10700, "unit": "M⁻¹ s⁻¹"}, {"measurement": "Cyclization yield (%) at 4 h", "setting": "kB1-DHV", "value": "< 10", "unit": "%"}, {"measurement": "cyclization rate against kB1-NHV", "setting": "kB1-DHV", "value": "at about a hundred-fold slower than kB1-NHV"}, {"measurement": "Km", "setting": "[5]", "value": 34.2, "unit": "µM"}, {"measurement": "cyclization yield within 5 min", "setting": "[5]", "value": "butelase 1 achieved >95% cyclization yields within 5 min for all peptides tested"}, {"measurement": "kcat", "setting": "[5]", "value": 3.54, "unit": "s⁻¹"}, {"measurement": "kcat/Km", "setting": "[5]", "value": 103000, "unit": "M^-1 S^-1"}, {"measurement": "Cyclization yield (%) at 4 h", "setting": "SFTI-DHV", "value": "< 10", "unit": "%"}, {"measurement": "Yield (%) of dimerization and cyclization, products Cyclo(RVTRPVN), Cyclo(RVTRPVN)2", "setting": "RV-10", "value": 20, "unit": "%"}, {"measurement": "Cyclization yield (%) at 4 h", "setting": "kB1-QHV", "value": "< 1", "unit": "%"}, {"measurement": "cyclization after 4 h (MS)", "setting": "kB1-QHV", "value": "No cyclization of kB1-AHV, kB1-QHV or kB1-EHV was observed after incubating with butelase 1 for 4 h"}, {"measurement": "Yield (%) of cyclization", "setting": "Histatin-1b", "value": 90, "unit": "%"}, {"measurement": "Cyclization yield (%) at 4 h", "setting": "kB1-EHV", "value": "< 1", "unit": "%"}, {"measurement": "cyclization after 4 h (MS)", "setting": "kB1-EHV", "value": "No cyclization of kB1-AHV, kB1-QHV or kB1-EHV was observed after incubating with butelase 1 for 4 h"}, {"measurement": "cyclization yield within 5 min", "setting": "[6]", "value": "butelase 1 achieved >95% cyclization yields within 5 min for all peptides tested"}, {"measurement": "Yield (%) of dimerization and cyclization, product Cyclo([..])2", "setting": "HV-10", "value": 50, "unit": "%"}, {"measurement": "Cyclization yield (%) at 4 h", "setting": "kB1-NH", "value": "< 5", "unit": "%"}, {"measurement": "Yield (%) of dimerization and cyclization, product Cyclo([..])2", "setting": "GV-10", "value": 50, "unit": "%"}, {"measurement": "Yield (%) of cyclization", "setting": "Histatin-1a", "value": 90, "unit": "%"}, {"measurement": "Cyclization yield (%) at 3 h", "setting": "kB1-NHVIA", "value": "> 95", "unit": "%"}, {"measurement": "Km", "setting": "kB1-NHVIA", "value": 129, "unit": "µM"}, {"measurement": "kcat", "setting": "kB1-NHVIA", "value": 0.38, "unit": "s⁻¹"}, {"measurement": "kcat/Km", "setting": "kB1-NHVIA", "value": 2970, "unit": "M⁻¹ s⁻¹"}]}, {"protein": "B2", "values": [{"measurement": "hydrolysis or cyclization of kB1-NHV (MS)", "setting": "kB1-NHV", "value": "commercial jack bean legumain was unable to cyclize kB1-NHV and generated only the linear form of kB1"}]}]}
